Experimental data taken from article PMC11546610, “Molecular Modeling and In Vitro Functional Analysis of the RGS12 PDZ Domain Variant Associated with High-Penetrance Familial Bipolar Disorder” (International Journal of Molecular Sciences, 2024).
Values belong to the molecule of their own block, whether it stands above or below them. No end group written: not given here. *: point of attachment. Biotin = O=C1N[C@H]2[C@H](CS[C@H]2CCCCC(=O)*)N1; Ahx = NCCCCCC(=O)O

Key:
[1] = test system: isolated rat RGS12 PDZ domain (recombinant GST-fusion protein); design: method as in PMID 9651375, PMID 17380122, PMID 11771424; conditions: C-terminal tail peptide; ref [19],[42],[65]; cited from earlier work
[2] = test system: recombinant RGS12 PDZ domain protein; conditions: biotinylated peptide immobilized on streptavidin chip to 350 RU; 10 mM HEPES pH 7.4, 250 mM NaCl, 0.05% Nonidet P-40, 50 μM EDTA; analyte 300 μM (10 nM to 500 μM); mNotch1 surface subtracted
Procedure: Optical detection of real-time protein–peptide interactions by surface plasmon resonance was performed using a Biacore 3000 (Cytiva; Marlborough, MA, USA), as per previously described methods [65, 105, 106]. Briefly, biotinylated peptides were separately immobilized on streptavidin-coated SPR chips (Cytiva) to 350 resonance units (RUs). All experiments were performed with the sensor surface, fluidics, and pump equilibrated with Biacore running buffer (10 mM HEPES pH 7.4, 250 mM NaCl, 0.05% (v/v) Nonidet P-40, and 50 μM EDTA). Increasing concentrations (10 nM to 500 μM) of recombinant RGS12 PDZ domain protein (expressed from E. coli culture and purified as previously described in ref. [65]) were separately injected at a flow rate of 10 μL/min with a 300 s dissociation phase. The surface was regenerated between each test concentration by the injection of a denaturing regeneration buffer (1 M NaCl, 50 mM NaOH). Non-specific binding to a biotinylated mNotch1 peptide-bound streptavidin surface was subtracted from each curve (BIA-evaluation Version 3.0 software, Cytiva). Maximal response units for each injection were plotted using GraphPad Prism 5.0.

[3] = test system: wildtype RGS12 PDZ domain; conditions: prior SPR assays; ref [19],[42],[65]; cited from earlier work
Source text: Table 1 Heat map of GLIDE SP-peptide and GLIDE XP scores for predicted docking of four pentameric ligands into the ligand-binding “receptor grid” specified for each of the 20 low-energy structural models (“poses”) of the human RGS12 PDZ domain recorded within PDB id 2KV8. […] Each of the three C-tail ligands was synthesized as an N-terminally biotin-tagged polypeptide and used to create gold nanoparticle biosensors for measuring the binding of these recombinant GST-RGS12 PDZ domain fus ...

[4] = target: T1, R59Q-variant RGS12 PDZ domain GST-fusion protein (Homo sapiens, UniProt O14924, R59Q); experiment: SPR single-cycle kinetics (Alto), R59Q-variant PDZ domain; assay type: binding; conditions: R59Q vs wildtype; peptide biosensors; N = 2-4
T1 construct: human RGS12 PDZ domain (aa 18–101 of UniProt O14924); purchased GenScript; host or cells: E. coli
T1 sequence (O14924 18-101 R59Q): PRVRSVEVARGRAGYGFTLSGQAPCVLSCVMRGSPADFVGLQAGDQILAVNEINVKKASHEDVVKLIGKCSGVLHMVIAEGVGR
Procedure: Wildtype and R59Q-variant versions of the human RGS12 PDZ domain (aa 18–101 of UniProt O14924) were each cloned in frame with an N-terminal glutathione-S-transferase (GST) expression tag, expressed by E. coli fermentation, and purified by GST-affinity column and size-exclusion column chromatographies by GenScript. These recombinant GST-fusion proteins were stored at −80 °C in a storage buffer (150 mM NaCl, 10 mM Tris-HCl pH 7.6, 1 mM EDTA, 5 mM DTT, and 10% glycerol) prior to thawing and supplementation with 0.1% (final) Tween 20 for use in the SPR experiments.
Biotinylated peptides were separately immobilized onto streptavidin-coated gold nanosensor particles (Nicoya) in lane pairs. The reference sensor of the lane held either immobilized mNotch1 or rβ2AR peptide as an established negative control surface, and the test sensor held one of the candidate PDZ domain-interacting peptides. All on-board dilutions and experimental passages of analytes over immobilized peptides were performed with a running buffer consisting of phosphate-buffered saline (137 mM NaCl, 2.7 mM KCl, 4.3 mM disodium phosphate, 1.4 mM monopotassium phosphate; and pH 7.3, from Teknova) supplemented with 0.1% Tween 20 (Nicoya), […] (w/v) bovine serum albumin (BSA; Nicoya), and 3% glycerol (the latter to reduce bulk-shift readings when transitioning from running buffer to protein analyte injections). […] Each sensor was regenerated between each single-stack passage by the injection of a surface regeneration buffer (10 mM NaOH). Non-specific binding to the paired, negative control peptide-bound streptavidin surface was subtracted from each single-stack curve and then binding parameters of the on-rate (ka), off-rate (kd), and dissociation constant (KD) were calculated using the 1:1 Langmuir kinetics model with mass transport limitation (Alto software version 2.3.1; Nicoya). Observed maximal response units (Rmax) and calculated KD values for each single-stack injection were plotted using GraphPad Prism 10.

[5] = target: T2, Wildtype human RGS12 PDZ domain GST-fusion protein (human, UniProt O14924 18-101); experiment: SPR; Alto 8 × 2 digital microfluidics SPR (Nicoya); biotinylated peptides immobilised on streptavidin-coated gold nanosensors; GST-RGS12 PDZ fusion protein as analyte, single-cycle kinetics, 111 nM-9 μM; PBS pH 7.3 with 0.1% Tween 20, BSA, 3% glycerol; mNotch1 or rβ2AR reference sensor subtracted; 1:1 Langmuir model with mass transport limitation; apparent rates, estimated KD; conditions: both partners purified
T2 construct: human RGS12 PDZ domain, aa 18-101 of UniProt O14924; also called GST-RGS12 PDZ domain fusion protein; wildtype PDZ protein; not shown: GST, N-terminal, kept
T2 sequence (looked up): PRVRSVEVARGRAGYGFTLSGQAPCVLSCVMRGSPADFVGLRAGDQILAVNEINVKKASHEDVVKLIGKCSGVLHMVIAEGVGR

[6] = target: T3, R59Q-variant human RGS12 PDZ domain GST-fusion protein (human, UniProt O14924 18-101, R59Q); experiment: SPR
T3 sequence: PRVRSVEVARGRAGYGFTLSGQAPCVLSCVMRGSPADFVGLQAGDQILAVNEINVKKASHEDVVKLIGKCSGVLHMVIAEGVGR

[7] = target: T4, Wildtype human RGS12 PDZ domain GST-fusion protein (human, UniProt O14924 18-101); experiment: SPR
T4 chain: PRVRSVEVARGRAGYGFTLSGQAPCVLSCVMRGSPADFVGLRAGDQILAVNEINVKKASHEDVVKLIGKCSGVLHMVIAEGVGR

[8] = target: T3, R59Q-variant human RGS12 PDZ domain …; experiment: SPR; remark: listed apart in the source
[9] = target: T4, Wildtype human RGS12 PDZ domain …; experiment: SPR
[10] = test system: HA-epitope tagged RGS12 full-length protein; experiment: Co-immunoprecipitation of RGS12 and SAPAP3 in HEK293T cells; assay type: binding
Procedure: Monolayer cultures of the immortalized human embryonic kidney cell line HEK293T (ATCC CRL-3216) were transfected at 75–90% confluence using FuGENE6 transfection reagent (Promega; Madison, WI, USA), according to the manufacturer’s instructions, with 0.5 μg of pcDNA3.1-Flag-SAPAP3 expression plasmid DNA and/or 0.5 μg of pcDNA3.1-HA-RGS12 expression plasmid DNA [103]. Forty-eight hours later, the transfected cells were lysed with ice-cold Triton-X lysis buffer (20 mM Tris-HCl pH 7.5, 150 mM NaCl, 1 mM EDTA, 1 mM EGTA, and 1% Triton X-100, supplemented with protease inhibitors). The lysates were clarified by centrifugation (16,000× g) and then incubated overnight at 4 °C with […] of HA- or Flag-epitope tag-specific antibody followed by precipitation with protein-A/G beads (Santa Cruz Biotechnology; Dallas, TX, USA). The beads were washed 3 times with ice-cold lysis buffer and the proteins were eluted in Laemmli buffer. The samples were resolved on 4–12% precast SDS-polyacrylamide gels (Novex/Invitrogen; ThermoFisher Scientific, Waltham, MA, USA), transferred to nitrocellulose, and immunoblotted with horseradish peroxidase (HRP)-conjugated primary antibodies to HA- or Flag-epitope tags and visualized by ECL chemiluminescence (GE Healthcare; Chicago, IL, USA).

Molecule: VGSSSANTSTTL-OH [C-terminal tail of rat CXCR2, 12-mer]
SPR binding to rat RGS12 PDZ domain (in words) [1]: direct and selective binding

SPR binding of recombinant RGS12 PDZ domain (in words) [2]: bound specifically
Molecule: biotin-NH-SATESADSIEIYIPEAQTRL-carboxylic acid

Molecule: biotin-Ahx-PSQITHIPEAFK-carboxylic acid [mouse Notch1]
binding of negative control to RGS12 PDZ domain (in words) [3]: no demonstrable affinity

Molecule: biotin-Ahx-QGRNCNTNDSPL-carboxylic acid [rat beta2-adrenergic receptor]
binding of negative control to RGS12 PDZ domain (in words) [3]: no demonstrable affinity

SPR binding of recombinant RGS12 PDZ domain (in words) [2]: no appreciable binding
Molecule: biotin-NH-SATESADSIEIYIPEAQSRL-amide

KD of R59Q variant relative to wildtype (fold less than the wildtype) [4]: at least 2 fold | maximal binding signal (Rmax), R59Q in comparison to wildtype [4]: less maximal binding signal (Rmax)
Molecule: biotin-Ahx-RTLRLKQPSTPTRTAV-carboxylic acid [TRTAV-COOH of MEK2]

Molecule: RTLRLKQPSTPTRTAV-OH [C-terminal tail of rat MEK2, 16-mer]
SPR binding to rat RGS12 PDZ domain (in words) [1]: direct and selective binding

binding result [5]: binds | Kd [6]: 1280 nM | Kd [7]: 450 nM | koff [8]: 0.00193 s⁻¹ | koff [9]: 0.000542 s⁻¹
B1: CXCR2 C-terminal peptide, biotin-Ahx-VGSSSGHTSTTL-carboxylic acid (peptide)
peptide: {Biotin-Ahx}-VGSSSGHTSTTL-OH
SMILES: CC(C)C[C@H](NC(=O)[C@@H](NC(=O)[C@@H](NC(=O)[C@H](CO)NC(=O)[C@@H](NC(=O)[C@H](Cc1c[nH]cn1)NC(=O)CNC(=O)[C@H](CO)NC(=O)[C@H](CO)NC(=O)[C@H](CO)NC(=O)CNC(=O)[C@@H](NC(=O)CCCCCNC(=O)CCCC[C@@H]1SC[C@@H]2NC(=O)N[C@@H]21)C(C)C)[C@@H](C)O)[C@@H](C)O)[C@@H](C)O)C(=O)O
notes: C-terminus of CXCR2; also called CXCR2 C-tail peptide TSTTL-COOH; CXCR2 TSTTL-COOH biosensor; source: synthetic peptide (GenScript)

binding result [5]: binds
B2: MEK2 C-terminal peptide, biotin-Ahx-RTLRLKQPSTPTRTAV-carboxylic acid (peptide)
peptide: {Biotin-Ahx}-RTLRLKQPSTPTRTAV-OH
SMILES: CC(C)C[C@H](NC(=O)[C@H](CCCNC(=N)N)NC(=O)[C@H](CC(C)C)NC(=O)[C@@H](NC(=O)[C@H](CCCNC(=N)N)NC(=O)CCCCCNC(=O)CCCC[C@@H]1SC[C@@H]2NC(=O)N[C@@H]21)[C@@H](C)O)C(=O)N[C@@H](CCCCN)C(=O)N[C@@H](CCC(N)=O)C(=O)N1CCC[C@H]1C(=O)N[C@@H](CO)C(=O)N[C@H](C(=O)N1CCC[C@H]1C(=O)N[C@H](C(=O)N[C@@H](CCCNC(=N)N)C(=O)N[C@H](C(=O)N[C@@H](C)C(=O)N[C@H](C(=O)O)C(C)C)[C@@H](C)O)[C@@H](C)O)[C@@H](C)O
notes: C-terminus of MEK2; also called MEK2 C-tail; TRTAV-COOH of MEK2; source: synthetic peptide (GenScript)

binding result [5]: binds | Kd [6]: 600 nM | Kd [7]: 260 nM | koff [8]: 0.00923 s⁻¹ | koff [9]: 0.000383 s⁻¹
B3: SAPAP3 C-terminal peptide, biotin-Ahx-IYIPEAQTRL-carboxylic acid (peptide)
peptide: {Biotin-Ahx}-IYIPEAQTRL-OH
SMILES: CC[C@H](C)[C@H](NC(=O)CCCCCNC(=O)CCCC[C@@H]1SC[C@@H]2NC(=O)N[C@@H]21)C(=O)N[C@@H](Cc1ccc(O)cc1)C(=O)N[C@H](C(=O)N1CCC[C@H]1C(=O)N[C@@H](CCC(=O)O)C(=O)N[C@@H](C)C(=O)N[C@@H](CCC(N)=O)C(=O)N[C@H](C(=O)N[C@@H](CCCNC(=N)N)C(=O)N[C@@H](CC(C)C)C(=O)O)[C@@H](C)O)[C@@H](C)CC
notes: C-terminus of SAPAP3; the last ten residues of the human 20-mer aa 960-979; also called SAPAP3 C-tail peptide AQTRL-COOH; source: synthetic peptide (GenScript)

B4: Flag-epitope tagged SAPAP3: Flag-epitope tagged SAPAP3 full-length protein expressed in HEK293T cells (protein, UniProt O95886 1-979, looked up)
chain: MRGYHGDRGSHPRPARFADQQHMDVGPAARAPYLLGSREAFSTEPRFCAPRAGLGHISPEGPLSLSEGPSVGPEGGPAGAGVGGGSSTFPRMYPGQGPFDTCEDCVGHPQGKGAPRLPPTLLDQFEKQLPVQQDGFHTLPYQRGPAGAGPGPAPGTGTAPEPRSESPSRIRHLVHSVQKLFAKSHSLEAPGKRDYNGPKAEGRGGSGGDSYPGPGSGGPHTSHHHHHHHHHHHHQSRHGKRSKSKDRKGDGRHQAKSTGWWSSDDNLDSDSGFLAGGRPPGEPGGPFCLEGPDGSYRDLSFKGRSGGSEGRCLACTGMSMSLDGQSVKRSAWHTMMVSQGRDGYPGAGPGKGLLGPETKAKARTYHYLQVPQDDWGGYPTGGKDGEIPCRRMRSGSYIKAMGDEESGDSDGSPKTSPKAVARRFTTRRSSSVDQARINCCVPPRIHPRSSIPGYSRSLTTGQLSDELNQQLEAVCGSVFGELESQAVDALDLPGCFRMRSHSYLRAIQAGCSQDDDCLPLLATPAAVSGRPGSSFNFRKAPPPIPPGSQAPPRISITAQSSTDSAHESFTAAEGPARRCSSADGLDGPAMGARTLELAPVPPRASPKPPTLIIKTIPGREELRSLARQRKWRPSIGVQVETISDSDTENRSRREFHSIGVQVEEDKRRARFKRSNSVTAGVQADLELEGLAGLATVATEDKALQFGRSFQRHASEPQPGPRAPTYSVFRTVHTQGQWAYREGYPLPYEPPATDGSPGPAPAPTPGPGAGRRDSWIERGSRSLPDSGRASPCPRDGEWFIKMLRAEVEKLEHWCQQMEREAEDYELPEEILEKIRSAVGSTQLLLSQKVQQFFRLCQQSMDPTAFPVPTFQDLAGFWDLLQLSIEDVTLKFLELQQLKANSWKLLEPKEEKKVPPPIPKKPLRGRGVPVKERSLDSVDRQRQEARKRLLAAKRAASFRHSSATESADSIEIYIPEAQTRL
modifications: full-length Flag epitope tag
co-immunoprecipitation ([10]; IP with anti-Flag antibody, Triton-X lysis buffer pH 7.5): co-immuno-precipitate | reciprocal co-immunoprecipitation ([10]; IP with anti-HA antibody): reciprocal co-immunoprecipitation
